In assay [1] the target is soluble hFcγRIIA^131H (human) (UniProt P12318). As to the kind of experiment: SPR Biacore T100; reference of the fold not given. (In general: In SPR one partner is held on a chip, and binding of the other changes the refractive index at the surface.)
Assay [2] deals with soluble hFcγRIIA^131R (human) (UniProt P12318). In words: SPR Biacore T100; reference of the fold not given.
The target in assay [3] is soluble hFcγRIIB (human) (UniProt P31994). As to the kind of experiment: SPR Biacore T100; reference of the fold not given.
Sequence of soluble hFcγRIIB (human) (P31994 43-217 limits assumed): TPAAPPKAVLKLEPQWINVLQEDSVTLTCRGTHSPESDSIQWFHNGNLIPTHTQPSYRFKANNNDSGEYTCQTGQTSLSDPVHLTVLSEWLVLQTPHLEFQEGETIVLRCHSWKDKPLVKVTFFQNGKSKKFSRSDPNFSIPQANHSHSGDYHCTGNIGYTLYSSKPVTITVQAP
Assay [4] concerns the target soluble hFcγRIIA^131H (human) (UniProt P12318). As to the kind of experiment: SPR Biacore T100, steady state, antibody immobilised.
For assay [5], the target named is soluble hFcγRIIA^131R (human) (UniProt P12318). Described as above.
In assay [6] the target is soluble hFcγRIIB (human) (UniProt P31994). The assay is described as above.

Consider one molecule from patent US8618251.

Sequence of soluble hFcγRIIA^131H (human) (P12318 34-217): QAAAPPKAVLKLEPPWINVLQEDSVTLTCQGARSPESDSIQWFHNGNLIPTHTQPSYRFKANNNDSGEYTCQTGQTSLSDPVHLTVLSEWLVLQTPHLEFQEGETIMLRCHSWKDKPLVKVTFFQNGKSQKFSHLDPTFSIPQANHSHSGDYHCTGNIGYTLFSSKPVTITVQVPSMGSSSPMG
Sequence of soluble hFcγRIIA^131R (human) (P12318 34-217 H167R): as the sequence (P12318 34-217) above, with H134R counted along it

B1: 4-4-20 hIgG1 Fc mutant L163P-S183G-K222E-G236A-N276D-S298G-T299A-D312G (antibody, part only; not given: 4-4-20 variable domains, not shown: another chain or arm of the molecule)
constant: ASTKGPSVFPLAPSSKSTSGGTAALGCLVKDYFPEPVTVSWNSGAPTSGVHTFPAVLQSSGLYSLGSVVTVPSSSLGTQTYICNVNHKPSNTKVDKRVEPKSCDETHTCPPCPAPELLAGPSVFLFPPKPKDTLMISRTPEVTCVVVDVSHEDPEVKFDWYVDGVEVHNAKTKPREEQYNGAYRVVSVLTVLHQGWLNGKEYKCKVSNKALPAPIEKTISKAKGQPREPQVYTLPPSRDELTKNQVSLTCLVKGFYPSDIAVEWESNGQPENNYKTTPPVLDSDGSFFLYSKLTVDKSRWQQGNVFSCSVMHEALHNHYTQKSLSLSPGK
For B1, the Fold change in affinity in assay [1] was 2.6 fold; in assay [2] it was 7.4 fold; in assay [3], 1.3 fold. In addition, the Kd in assay [4] was found to be 1.34 µM; in assay [5] it was 0.781 µM; in assay [6], 8.48 µM.

By Kd is commonly meant the concentration at which binding is half-saturated. Higher therefore signals a looser complex.
